# T1: human B7-H4 expressed on cells (CHOK-1 B7-H4, SK-BR3, CAMA-1, MDA-MB-468, MX-1, OVCAR-3) (human, UniProt Q7Z7D3 25-282)
# T1 construct: whole, on cells; also called B7-H4 expressed cell line; B7-H4 positive cancer cell lines
# T1 sequence (looked up): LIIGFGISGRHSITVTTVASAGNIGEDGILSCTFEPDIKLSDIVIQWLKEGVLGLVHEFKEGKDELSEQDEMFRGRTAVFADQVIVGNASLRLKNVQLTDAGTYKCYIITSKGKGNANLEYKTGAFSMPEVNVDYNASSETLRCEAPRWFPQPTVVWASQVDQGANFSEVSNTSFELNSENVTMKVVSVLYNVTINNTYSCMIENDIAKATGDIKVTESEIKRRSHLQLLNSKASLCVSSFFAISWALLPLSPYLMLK
# B1: 16E3H3 (mouse monoclonal anti-B7-H4 antibody) (antibody, V domains shown)
# VH: QIQLVHSGPELKKPGETVKISCKASGYPFTTYGMNWVKQAPGKGLKWMGWIDTYSGVPTYADDFKGRFAFSLETSASTAYLQINNLKNEDTATYFCARRSFWYFDVWGTGTTVTVSS
# VL: DVVMTQTPLSLPVSLGDQASISCRSSQSLVHSNGNTYLHWYLQKPGQSPKLLIYKVSNRFSGVPDRFSGSGSGTDFTLKIRRVEAEDLGVYFCSQSTHVPWTFGGGTKLEIK
# notes: Mouse hybridoma antibody, detected with anti-mouse IgG Fc; also called 16E3H3 (from mouse); 16E3H3 clone
# B2: 23B6C2 (mouse monoclonal anti-B7-H4 antibody) (antibody, V domains shown)
# VH: QVTLKESGPGILQPSQTLSLTCSFSGFSLSTFGMGVGWIRQPSGKGLEWLAHIWWDDDKYYNSALKSRLTISKETSKNQIFLKIANVDTTDTATYYCVRKDYYGYRGFAYWGQGTLVTVSA
# VL: QLVLTQSSSASFSLGASAKLTCTLSSQHTTYTIEWYQQQPLKPPKYVMELKKDGSHSTGDGIPDRFSGSSSGADRYLCISNIQPEDEAIYICGVGDTIKEQFVYVFGGGTKVTVL
# notes: Mouse hybridoma antibody, detected with anti-mouse IgG Fc; also called 23B6C2 (from mouse)
# B3: 73B4F10 (mouse monoclonal anti-B7-H4 antibody) (antibody, V domains shown)
# VH: QVQLQQPGTELVKPGASVKLSCKASGYTFTSYWMHWVKQRPGQGLERIGHINPSNGGTNYNEKFKKKATLTVDKSSSTAYMQLSSLTSEDSAVYYCARSEFYYGTVFAYWGQGTLVTVSA
# VL: DVLMTQTPLSLPVSLGDQASISCRSSQSIVHGNGNTYLEWYLQKPGQSPKLLIYKVSNRFSGVPDRFSGSGSGTDFTLKISRVEAEDLGVYYCFQGSHDPPTFGGGTKLEIK
# notes: Mouse hybridoma antibody, detected with anti-mouse IgG Fc; also called 73B4F10 (from mouse)
# Experiments:
# [1] = molecular target: T1, human B7-H4 expressed on cells (CHOK-1 …); assay: FACS on MDA-MB-468 cells, 100 nM antibody, FITC anti-mouse IgG Fc detection (FL1-H)
# Procedure: (§1) To evaluate the antigen binding property, the mouse antibody candidates generated according to Preparation Example 1-1 were analyzed for their bindings to B7-H4 expressed cells (SK-BR3, CAMA-1 and MDA-MB-468) or B7-H4 negative expressed cell (PANC-1). Briefly, each cells were treated with the 100 nM of indicated antibodies at 4° C. for 1 hr. After washing by FACS buffer (1% BSA in PBS), Cells were incubated with the FITC anti-mouse IgG Fc antibody at 4° C. for 1 hr and then subjected to FACS analysis. As shown FIG. 1, anti-B7-H4 mouse antibodies bound to B7-H4 expressed SK-BR3, CAMA-1 and MDA-MB-468 cell lines but not B7-H4 negative PANC-1. […] Based on the ranking results, 16E3H3 clone was selected for humanization.
# [2] = molecular target: T1, human B7-H4 expressed on cells (CHOK-1 …); assay: FACS on SK-BR3 cells, 100 nM antibody, FITC anti-mouse IgG Fc detection (FL1-H)
# Procedure: as §1
# [3] = molecular target: T1, human B7-H4 expressed on cells (CHOK-1 …); assay: FACS on CAMA-1 cells, 100 nM antibody, FITC anti-mouse IgG Fc detection (FL1-H)
# Procedure: as §1
MFI [1],MFI [2],MFI [3],Binder
77.6,25.3,463,B1
22,7.85,47.4,B2
20.1,5.95,29,B3
